Source: the supplement of paper PMC10065799, “High-throughput profiling of sequence recognition by tyrosine kinases and SH2 domains using bacterial peptide display” (eLife, 2023)

Key:
[1] = system: AncSZ; assay: phosphorylation enrichment, bacterial display (enrichment ratio); higher = better substrate or ligand; peptides without Tyr show the background
[2] = molecular target: EPHB1 (UniProt P54762); assay: as above
[3] = molecular target: EPHB2 (UniProt P29323); assay: as above
[4] = molecular target: FGFR1 (UniProt P11362); assay: as above
FGFR1, sequence (P11362 whole entry, looked up): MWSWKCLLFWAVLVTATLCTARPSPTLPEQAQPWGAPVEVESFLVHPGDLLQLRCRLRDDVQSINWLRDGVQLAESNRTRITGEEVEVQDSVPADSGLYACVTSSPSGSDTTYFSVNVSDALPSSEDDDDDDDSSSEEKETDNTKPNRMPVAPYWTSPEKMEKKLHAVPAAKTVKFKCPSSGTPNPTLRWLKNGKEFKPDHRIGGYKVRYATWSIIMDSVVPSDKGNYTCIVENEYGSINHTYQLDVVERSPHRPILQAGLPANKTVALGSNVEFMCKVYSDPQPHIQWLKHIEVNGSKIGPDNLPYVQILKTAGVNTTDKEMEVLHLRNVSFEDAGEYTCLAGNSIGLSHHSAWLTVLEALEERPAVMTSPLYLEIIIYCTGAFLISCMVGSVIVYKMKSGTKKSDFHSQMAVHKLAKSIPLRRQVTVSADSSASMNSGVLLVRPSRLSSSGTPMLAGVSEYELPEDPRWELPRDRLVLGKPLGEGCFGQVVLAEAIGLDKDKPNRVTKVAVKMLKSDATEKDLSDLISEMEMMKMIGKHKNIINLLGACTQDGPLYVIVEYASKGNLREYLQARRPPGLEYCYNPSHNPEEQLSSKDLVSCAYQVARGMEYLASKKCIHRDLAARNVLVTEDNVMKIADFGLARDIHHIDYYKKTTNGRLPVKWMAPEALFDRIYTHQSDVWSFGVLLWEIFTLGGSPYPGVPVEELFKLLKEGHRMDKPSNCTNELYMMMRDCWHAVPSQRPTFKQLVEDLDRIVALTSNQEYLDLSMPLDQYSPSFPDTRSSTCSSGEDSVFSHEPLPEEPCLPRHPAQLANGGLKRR

[5] = molecular target: FGFR3 (UniProt P22607); assay: as above
FGFR3, sequence (P22607 whole entry, looked up): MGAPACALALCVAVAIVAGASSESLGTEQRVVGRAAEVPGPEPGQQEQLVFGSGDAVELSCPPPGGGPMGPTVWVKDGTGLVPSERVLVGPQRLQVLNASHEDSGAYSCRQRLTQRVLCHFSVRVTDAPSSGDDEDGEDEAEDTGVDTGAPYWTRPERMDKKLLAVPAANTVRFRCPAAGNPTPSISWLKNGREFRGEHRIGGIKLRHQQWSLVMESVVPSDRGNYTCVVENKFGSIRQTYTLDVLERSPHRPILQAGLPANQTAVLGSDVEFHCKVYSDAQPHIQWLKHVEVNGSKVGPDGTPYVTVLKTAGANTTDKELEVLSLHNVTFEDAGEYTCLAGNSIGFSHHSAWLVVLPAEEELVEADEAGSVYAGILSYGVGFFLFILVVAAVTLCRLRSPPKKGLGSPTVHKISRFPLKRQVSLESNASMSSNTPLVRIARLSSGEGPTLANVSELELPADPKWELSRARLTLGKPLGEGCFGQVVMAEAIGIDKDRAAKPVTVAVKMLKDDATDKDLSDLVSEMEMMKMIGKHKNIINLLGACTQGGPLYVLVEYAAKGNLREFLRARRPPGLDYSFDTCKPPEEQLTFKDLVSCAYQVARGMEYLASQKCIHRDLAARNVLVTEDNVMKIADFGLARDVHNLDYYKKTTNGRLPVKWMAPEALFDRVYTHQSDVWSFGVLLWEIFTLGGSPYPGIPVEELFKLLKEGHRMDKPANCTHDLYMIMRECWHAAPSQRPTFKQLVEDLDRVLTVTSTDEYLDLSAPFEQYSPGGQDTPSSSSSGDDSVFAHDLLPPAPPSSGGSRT

[6] = system: Fer (mouse); assay: as above
[7] = molecular target: Fes (UniProt P07332); assay: as above
Fes, sequence (P07332 whole entry, looked up): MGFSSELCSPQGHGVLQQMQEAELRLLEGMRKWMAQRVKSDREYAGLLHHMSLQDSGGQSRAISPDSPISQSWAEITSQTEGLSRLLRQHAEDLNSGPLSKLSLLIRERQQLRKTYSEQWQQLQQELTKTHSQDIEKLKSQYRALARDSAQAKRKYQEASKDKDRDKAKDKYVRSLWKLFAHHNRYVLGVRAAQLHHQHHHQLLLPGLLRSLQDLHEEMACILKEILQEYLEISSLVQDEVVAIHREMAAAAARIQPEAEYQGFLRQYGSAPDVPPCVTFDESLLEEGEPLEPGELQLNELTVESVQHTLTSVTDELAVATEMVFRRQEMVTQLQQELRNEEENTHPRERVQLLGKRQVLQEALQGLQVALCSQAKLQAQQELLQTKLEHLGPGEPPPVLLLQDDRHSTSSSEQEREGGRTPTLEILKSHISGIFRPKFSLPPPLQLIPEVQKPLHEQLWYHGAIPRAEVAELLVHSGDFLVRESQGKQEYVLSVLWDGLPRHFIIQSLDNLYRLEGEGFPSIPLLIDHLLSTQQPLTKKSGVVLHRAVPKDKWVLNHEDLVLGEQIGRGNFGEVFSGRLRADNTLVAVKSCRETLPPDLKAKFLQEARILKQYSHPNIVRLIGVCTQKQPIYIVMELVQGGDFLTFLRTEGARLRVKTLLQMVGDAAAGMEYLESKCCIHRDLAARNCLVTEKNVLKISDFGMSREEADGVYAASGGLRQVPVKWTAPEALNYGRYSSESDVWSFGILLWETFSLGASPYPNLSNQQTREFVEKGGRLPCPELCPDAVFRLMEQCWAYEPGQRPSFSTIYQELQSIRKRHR

[8] = molecular target: Fyn (UniProt P06241); assay: as above
[9] = molecular target: Hck (UniProt P08631); assay: as above
Hck, sequence (P08631 whole entry, looked up): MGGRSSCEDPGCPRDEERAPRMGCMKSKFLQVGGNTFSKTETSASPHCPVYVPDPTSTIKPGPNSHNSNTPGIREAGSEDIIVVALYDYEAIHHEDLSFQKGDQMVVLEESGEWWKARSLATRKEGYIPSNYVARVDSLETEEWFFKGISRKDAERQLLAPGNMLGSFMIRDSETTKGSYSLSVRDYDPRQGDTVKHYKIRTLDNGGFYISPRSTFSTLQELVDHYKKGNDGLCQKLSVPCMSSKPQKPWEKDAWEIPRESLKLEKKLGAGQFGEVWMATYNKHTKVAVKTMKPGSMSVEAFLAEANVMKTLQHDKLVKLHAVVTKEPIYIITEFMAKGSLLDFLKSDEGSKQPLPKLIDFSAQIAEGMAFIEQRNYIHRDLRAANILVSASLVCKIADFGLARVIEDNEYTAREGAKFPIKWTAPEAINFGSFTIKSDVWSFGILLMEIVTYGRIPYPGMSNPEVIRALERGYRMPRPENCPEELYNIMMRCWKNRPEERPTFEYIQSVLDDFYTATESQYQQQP

[10] = molecular target: Jak2 (UniProt O60674); assay: as above
[11] = molecular target: MERTK (UniProt Q12866); assay: as above
MERTK, sequence (Q12866 whole entry, looked up): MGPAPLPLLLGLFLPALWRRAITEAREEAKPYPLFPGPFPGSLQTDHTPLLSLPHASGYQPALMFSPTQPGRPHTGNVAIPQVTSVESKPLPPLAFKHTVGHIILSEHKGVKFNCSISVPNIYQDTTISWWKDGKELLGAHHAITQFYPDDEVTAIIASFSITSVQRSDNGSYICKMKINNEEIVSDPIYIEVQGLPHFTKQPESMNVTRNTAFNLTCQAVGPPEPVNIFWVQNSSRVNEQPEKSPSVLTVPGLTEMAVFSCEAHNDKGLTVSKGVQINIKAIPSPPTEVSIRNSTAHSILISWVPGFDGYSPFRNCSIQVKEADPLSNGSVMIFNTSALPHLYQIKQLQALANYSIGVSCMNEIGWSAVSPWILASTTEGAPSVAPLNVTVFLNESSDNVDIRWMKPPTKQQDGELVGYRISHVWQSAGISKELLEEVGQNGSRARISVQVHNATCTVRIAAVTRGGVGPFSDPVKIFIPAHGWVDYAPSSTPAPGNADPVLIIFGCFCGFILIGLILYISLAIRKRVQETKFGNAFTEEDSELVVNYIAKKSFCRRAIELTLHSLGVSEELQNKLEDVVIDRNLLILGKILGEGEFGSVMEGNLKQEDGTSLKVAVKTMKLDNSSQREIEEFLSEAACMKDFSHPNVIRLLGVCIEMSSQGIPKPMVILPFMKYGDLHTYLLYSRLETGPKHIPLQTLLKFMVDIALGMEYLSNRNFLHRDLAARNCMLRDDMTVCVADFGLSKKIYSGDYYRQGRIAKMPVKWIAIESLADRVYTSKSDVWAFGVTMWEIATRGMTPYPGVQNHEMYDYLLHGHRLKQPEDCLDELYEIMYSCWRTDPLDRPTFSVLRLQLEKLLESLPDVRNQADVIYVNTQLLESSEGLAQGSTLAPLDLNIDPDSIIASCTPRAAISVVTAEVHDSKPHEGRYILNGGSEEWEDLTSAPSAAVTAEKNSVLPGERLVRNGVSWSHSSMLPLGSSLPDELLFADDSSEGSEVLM

[12] = system: c-Abl (mouse); assay: as above
[13] = system: c-Src; assay: as above
[14] = molecular target: Grb2 SH2 (UniProt P62993); assay: SH2 binding enrichment of the phosphorylated peptide, bacterial display (enrichment ratio); higher = better substrate or ligand; peptides without Tyr show the background
[15] = molecular target: SHP2-C SH2; assay: as above
[16] = molecular target: c-Src SH2; assay: as above
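Wherever SH2 binding enrichment of the phosphorylated peptide, bacterial display is given: peptide library displayed on the E. coli surface as eCPX fusions, selected cells deep-sequenced, score is each peptide's frequency after selection divided by its frequency in the input.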
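Wherever phosphorylation enrichment, bacterial display is given: 11-residue human phosphosite peptides and single-mutation variants displayed on the E. coli surface, counted by deep sequencing, each peptide's frequency after selection divided by its frequency in the unselected input library; frequency after pTyr selection over input frequency; kinase dosed for 20-30% of maximal phosphorylation in three min.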

EPHB1, sequence (P54762 whole entry, looked up): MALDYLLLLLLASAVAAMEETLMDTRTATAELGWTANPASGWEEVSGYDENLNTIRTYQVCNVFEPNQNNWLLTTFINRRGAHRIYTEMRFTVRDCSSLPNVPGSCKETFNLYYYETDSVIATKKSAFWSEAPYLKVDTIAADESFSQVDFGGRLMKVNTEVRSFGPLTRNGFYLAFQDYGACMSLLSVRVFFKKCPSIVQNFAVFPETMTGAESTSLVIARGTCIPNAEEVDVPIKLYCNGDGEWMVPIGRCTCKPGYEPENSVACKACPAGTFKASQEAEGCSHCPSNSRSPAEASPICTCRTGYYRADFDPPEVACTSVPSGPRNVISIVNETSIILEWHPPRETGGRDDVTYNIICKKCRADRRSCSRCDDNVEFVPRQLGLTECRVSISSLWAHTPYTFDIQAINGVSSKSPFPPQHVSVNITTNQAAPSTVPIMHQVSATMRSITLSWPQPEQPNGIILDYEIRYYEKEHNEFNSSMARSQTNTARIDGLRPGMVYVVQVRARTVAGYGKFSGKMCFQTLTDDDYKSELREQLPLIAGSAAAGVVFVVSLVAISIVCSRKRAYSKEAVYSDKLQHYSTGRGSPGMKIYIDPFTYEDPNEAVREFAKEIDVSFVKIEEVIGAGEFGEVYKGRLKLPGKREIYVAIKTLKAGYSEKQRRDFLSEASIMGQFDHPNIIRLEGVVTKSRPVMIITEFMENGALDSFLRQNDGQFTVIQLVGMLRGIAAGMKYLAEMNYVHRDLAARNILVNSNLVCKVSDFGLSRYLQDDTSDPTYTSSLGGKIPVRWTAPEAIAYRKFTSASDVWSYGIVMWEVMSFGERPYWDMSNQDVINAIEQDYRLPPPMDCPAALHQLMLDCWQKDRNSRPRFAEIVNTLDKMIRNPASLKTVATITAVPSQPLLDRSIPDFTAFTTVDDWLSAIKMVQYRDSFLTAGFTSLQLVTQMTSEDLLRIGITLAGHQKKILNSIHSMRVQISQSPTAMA

Sequence | phosphorylation enrichment [1] | phosphorylation enrichment [2] | phosphorylation enrichment [3] | phosphorylation enrichment [4] | phosphorylation enrichment [5] | phosphorylation enrichment [6] | phosphorylation enrichment [7] | phosphorylation enrichment [8] | phosphorylation enrichment [9] | phosphorylation enrichment [10] | phosphorylation enrichment [11] | phosphorylation enrichment [12] | phosphorylation enrichment [13] | SH2 binding enrichment [14] | SH2 binding enrichment [15] | SH2 binding enrichment [16]
EEQKKYYNAVK [SCN5A_Y1494_M1498V] | 0.651 | 0.368 | 0.433 | 0.425 | 0.486 | 0.393 | 0.789 | 0.429 | 0.496 | 0.625 | 0.426 | 0.574 | 0.548 | 1.06 | 0.878 | 0.584
EGQKIYIDDNN [PIP4K2A_Y246] | 1.04 | 0.586 | 0.539 | 0.584 | 0.667 | 0.484 | 1.15 | 0.568 | 0.548 | 0.984 | 0.412 | 0.74 | 0.467 | 0.699 | 0.696 | 0.416
EGWQVYRLGAR [MISP_Y95] | 0.9 | 0.493 | 0.439 | 0.5 | 0.607 | 0.396 | 0.857 | 2.59 | 1.12 | 0.697 | 0.423 | 0.625 | 4.5 | 0.901 | 0.662 | 0.515
EIELAYRRRPP [GRIN2B_Y1109] | 0.661 | 0.448 | 0.451 | 0.41 | 0.455 | 0.458 | 0.587 | 0.45 | 0.433 | 0.556 | 0.385 | 0.437 | 0.353 | 0.642 | 0.569 | 0.387
EIHTQYEAMAS [GFAP_Y242_R239H] | 0.712 | 0.386 | 0.566 | 0.527 | 0.491 | 0.677 | 0.753 | 0.514 | 0.539 | 0.642 | 0.428 | 0.42 | 0.383 | 0.885 | 0.487 | 2.9
EKEQNYDLTQV [ECD_Y448_E452Q] | 1.24 | 0.513 | 0.612 | 0.612 | 0.782 | 1.17 | 1.33 | 0.557 | 0.528 | 1.07 | 0.569 | 1.42 | 0.506 | 0.79 | 0.508 | 0.486
EKKDVYKAGEQ [CFH_Y1008] | 1.08 | 0.336 | 0.643 | 0.434 | 0.482 | 0.624 | 0.675 | 0.404 | 0.386 | 0.555 | 0.425 | 0.475 | 0.394 | 0.954 | 0.549 | 0.596
EKKKYYDTKIE [CASP5_Y104] | 0.863 | 0.366 | 0.518 | 0.365 | 0.637 | 0.381 | 1.03 | 0.486 | 0.511 | 0.779 | 0.443 | 0.761 | 0.452 | 0.752 | 0.505 | 0.498
ELRGTYTSLQQ [KIF3C_Y574] | 0.705 | 0.398 | 0.481 | 0.489 | 0.535 | 0.428 | 0.869 | 0.978 | 0.956 | 0.777 | 0.434 | 0.684 | 1.39 | 0.775 | 4.42 | 3.05
EQKKFSNAMKK [SCN5A_Y1495_Y1495S_YF] | 0.474 | 0.229 | 0.345 | 0.378 | 0.693 | 0.331 | 0.473 | 0.293 | 0.364 | 0.315 | 0.326 | 0.375 | 0.401 | 0.735 | 0.64 | 0.642
EQKKFYNAMKN [SCN5A_Y1495_K1500N_YF] | 0.458 | 0.297 | 0.33 | 0.366 | 0.427 | 0.451 | 0.43 | 0.367 | 0.388 | 0.41 | 0.458 | 0.446 | 0.409 | 0.751 | 0.527 | 0.381
EQKKYYNAVKK [SCN5A_Y1495_M1498V] | 0.529 | 0.341 | 0.34 | 0.425 | 0.466 | 0.414 | 0.63 | 0.328 | 0.352 | 0.634 | 0.563 | 0.511 | 0.476 | 1.16 | 1.01 | 0.696
EQYELYCEMGS [CBL_Y371] | 3.8 | 7.29 | 8.68 | 4.55 | 4.12 | 3.7 | 1.61 | 4.26 | 5.35 | 1.37 | 5.03 | 1.08 | 4.14 | 0.89 | 0.776 | 0.629
ERLWDYGMSSS [F8_Y1728] | 0.971 | 0.612 | 0.578 | 0.433 | 0.742 | 0.483 | 1.06 | 0.415 | 0.459 | 0.778 | 0.399 | 0.767 | 0.419 | 0.779 | 0.742 | 0.597
ERMKVYVPIGF [EPHX1_Y393_T396I] | 0.67 | 0.623 | 0.497 | 0.412 | 0.538 | 0.425 | 0.742 | 1.13 | 0.622 | 0.597 | 0.478 | 0.543 | 0.907 | 0.76 | 0.909 | 0.556
ERWLKYFPIEQ [HS3ST5_Y244] | 1.05 | 0.401 | 0.566 | 0.452 | 0.798 | 0.566 | 1.27 | 0.361 | 0.436 | 0.855 | 0.451 | 0.624 | 0.288 | 1.25 | 1.05 | 0.729
ESDGAYIQRMQ [CCDC137_Y125_H127Q] | 0.687 | 0.474 | 0.496 | 0.385 | 0.54 | 0.417 | 0.772 | 0.423 | 0.446 | 0.985 | 0.43 | 0.599 | 0.456 | 0.731 | 0.708 | 0.468

Sequence | phosphorylation enrichment [1] | phosphorylation enrichment [2] | phosphorylation enrichment [3] | phosphorylation enrichment [4] | phosphorylation enrichment [5] | phosphorylation enrichment [6] | phosphorylation enrichment [7] | phosphorylation enrichment [8] | phosphorylation enrichment [9] | phosphorylation enrichment [10] | phosphorylation enrichment [11] | phosphorylation enrichment [12] | phosphorylation enrichment [13] | SH2 binding enrichment [14] | SH2 binding enrichment [15] | SH2 binding enrichment [16]
ESKKHYGYSLY [ANXA3_Y295_F291S] | 0.595 | 0.413 | 0.455 | 0.408 | 0.474 | 0.453 | 0.593 | 0.454 | 0.646 | 0.551 | 0.486 | 0.435 | 0.541 | 0.704 | 0.963 | 0.913
ESMLRYDVYGG [STOX1_Y607_E608D] | 0.96 | 0.646 | 1.08 | 0.482 | 0.705 | 0.462 | 0.972 | 1.04 | 1.3 | 0.704 | 0.918 | 0.529 | 1.29 | 0.996 | 0.62 | 0.723
ESPGLCGFLNV [BCR_Y910_Y910C] | 1.01 | 0.595 | 0.617 | 0.557 | 0.72 | 0.476 | 1.38 | 0.494 | 0.487 | 0.979 | 0.519 | 0.844 | 0.453 | 0.622 | 0.63 | 0.377
EVVGRYSVHYA [MLH1_Y183_N187Y] | 0.751 | 0.475 | 0.5 | 0.462 | 0.588 | 0.416 | 1.03 | 0.392 | 0.38 | 0.823 | 0.46 | 0.649 | 0.404 | 0.75 | 0.808 | 0.544
EWLRRHLENGK [HLA-A_Y195_Y195H] | 0.578 | 0.39 | 0.481 | 0.429 | 0.552 | 0.34 | 0.811 | 0.302 | 0.409 | 0.824 | 0.34 | 0.57 | 0.331 | 0.823 | 0.839 | 0.6
EYDRLYEEYTR [PIK3R1_Y467] | 2.49 | 4.27 | 7 | 0.826 | 0.889 | 6.02 | 1.43 | 7.8 | 6.46 | 1.21 | 2.8 | 1.34 | 5.99 | 0.728 | 0.678 | 3.83
EYGRRYGFSRQ [CCDC93_Y209] | 0.577 | 0.41 | 0.393 | 0.389 | 0.588 | 0.309 | 0.646 | 0.424 | 0.438 | 0.475 | 0.534 | 0.525 | 0.419 | 0.676 | 0.572 | 0.474
FADIAYNYRQG [PAH_Y166_H170Q] | 0.75 | 0.713 | 0.454 | 0.412 | 0.728 | 0.471 | 0.872 | 0.482 | 0.507 | 0.661 | 0.43 | 0.594 | 0.522 | 1.02 | 0.669 | 0.469
FDAHNYHPLPV [OAT_Y55_G51D_YF] | 0.731 | 0.635 | 0.762 | 10.7 | 5.97 | 1.13 | 0.734 | 0.501 | 1.1 | 1.02 | 1.09 | 0.807 | 0.556 | 0.731 | 0.634 | 0.841
FDDGKYVFVVT [RPS6KA3_Y488_YF] | 1.38 | 0.652 | 0.545 | 0.632 | 0.911 | 0.513 | 1.49 | 0.493 | 0.572 | 1.46 | 0.474 | 0.995 | 0.507 | 0.626 | 0.531 | 0.382
FEEDPYLVVNP [MCM6_Y810_YF] | 1.87 | 0.743 | 0.6 | 1.23 | 1.62 | 0.886 | 1.46 | 1.88 | 1.04 | 1.54 | 0.533 | 0.87 | 2.65 | 0.769 | 0.557 | 0.507
FFHCTYKKRMI [CLEC12A_Y242_YF] | 0.894 | 0.444 | 0.612 | 0.386 | 0.637 | 0.39 | 1.06 | 0.364 | 0.468 | 0.816 | 0.321 | 0.532 | 0.39 | 1.28 | 1.15 | 0.944
FFNSEYGELSE [FLT4_Y1337_YF] | 1.2 | 0.566 | 0.567 | 0.479 | 0.728 | 0.533 | 1.24 | 1.19 | 0.791 | 1.02 | 0.399 | 0.875 | 1.25 | 0.943 | 0.734 | 0.468
FFVVEYRDQKP [MUC17_Y4332_YF] | 1.05 | 0.657 | 0.647 | 0.612 | 0.803 | 0.53 | 1.27 | 0.474 | 0.515 | 1.03 | 0.374 | 0.617 | 0.566 | 1.6 | 1.55 | 0.861
FFVVEYRNQKP [MUC17_Y4332_D4334N_YF] | 1.32 | 0.795 | 0.841 | 0.581 | 0.98 | 0.82 | 1.65 | 0.623 | 0.687 | 1.55 | 0.413 | 1.52 | 0.608 | 1.46 | 1.38 | 0.865
FGPPQYNMQFS [ERBB2IP_Y977_I979M_YF] | 0.64 | 0.414 | 0.427 | 0.448 | 0.452 | 0.306 | 0.679 | 0.456 | 0.52 | 0.49 | 0.376 | 0.383 | 0.372 | 0.932 | 0.653 | 0.529
